This is an account of results in the Immune Epitope Database (IEDB).

Test in all cases: IEDB peptide-MHC binding, purified MHC/competitive/radioactivity; ≥ and ≤ were set here for values at or beyond the usual limits of such assays
Assay [1] concerns the target HLA-A*02:06.
For assay [2], the target named is HLA-A*68:02.
The target in assay [3] is HLA-A*02:03.
The target of assay [4] is HLA-A*02:02.
Assay [5] has as its target HLA-A*02:01.
Setting [6] is: source organism: Influenza A virus.
Setting [7] is: source organism: Vaccinia virus WR.

pIC50: −log10 of the molar value.

The term pIC50 denotes the negative decadic logarithm of the IC50, by convention in mol/L.

For the sequence FVFTLTVPS, the pIC50 was 7.74 in assay [1] (setting [6]); 7.60 in assay [2] (setting [6]); 6.57 in assay [3] (setting [6]); 6.40 in assay [4] (setting [6]); 6.29 in assay [5] (setting [6]).
Regarding FVKENERVNV, the pIC50 was 6.17 in assay [1] (setting [7]); 5.89 in assay [2] (setting [7]); 7.92 in assay [3] (setting [7]); 6.73 in assay [4] (setting [7]); 6.57 in assay [5] (setting [7]).
With FVLALYSPPL, the pIC50 in assay [1] (setting [7]) is 6.67; in assay [2] (setting [7]), 6.58; in assay [3] (setting [7]) it was 7.42; in assay [4] (setting [7]) it was 8.66; in assay [5] (setting [7]), 6.01.
On to FVMCLEAKT, for which the pIC50 is 6.01 in assay [1] (setting [7]); 5.82 in assay [2] (setting [7]); 5.71 in assay [3] (setting [7]); 6.22 in assay [4] (setting [7]); 5.42 in assay [5] (setting [7]).
FVNFVKDMI: the pIC50 is 6.64 in assay [1] (setting [7]); 9.21 in assay [2] (setting [7]); 6.91 in assay [3] (setting [7]); 7.26 in assay [4] (setting [7]); 5.75 in assay [5] (setting [7]).
As to FVSTMPVET, the pIC50 in assay [1] (setting [7]) was 5.81; in assay [2] (setting [7]) it was 6.49; in assay [3] (setting [7]), 6.41; in assay [4] (setting [7]), 5.92; in assay [5] (setting [7]) it was 6.08.
Regarding FVTDYVHEGV, the negative-log IC50 (pIC50) was 7.96 in assay [1] (setting [7]); 8.80 in assay [2] (setting [7]); 8.77 in assay [3] (setting [7]); 7.62 in assay [4] (setting [7]); 7.32 in assay [5] (setting [7]).
On to FVVFLLVTL, for which the negative logarithm of the IC50 (pIC50) in assay [1] (source organism: SARS-CoV1) is 7.42; in assay [2] (source organism: SARS-CoV1), 6.92; in assay [3] (source organism: SARS-CoV1), 5.79; in assay [4] (source organism: SARS-CoV1), 6.66; in assay [5] (source organism: SARS-CoV1), 6.08.
As to FVYVSVMNFI, the pIC50 was 8.12 in assay [1] (setting [7]); 7.24 in assay [2] (setting [7]); 7.74 in assay [3] (setting [7]); 7.12 in assay [4] (setting [7]); 6.15 in assay [5] (setting [7]).
With GALDVSASV, the pIC50 in assay [1] (source organism: SARS-CoV1) was 8.64; in assay [2] (source organism: SARS-CoV1), 8.54; in assay [3] (source organism: SARS-CoV1), 8.64; in assay [4] (source organism: SARS-CoV1), 9.14; in assay [5] (source organism: SARS-CoV1) it was 8.47.
As for GIFVDTMSI, the negative logarithm of the IC50 (pIC50) in assay [1] (setting [7]) was 5.79; in assay [2] (setting [7]), 5.40; in assay [3] (setting [7]), 6.03; in assay [4] (setting [7]), 5.54; in assay [5] (setting [7]), 5.52.
As to GILGFVFTLT, the pIC50 in assay [1] (setting [6]) is 6.21; in assay [2] (setting [6]), 6.14; in assay [3] (setting [6]), 6.04; in assay [4] (setting [6]) it was 6.02; in assay [5] (setting [6]), 6.19.
For GIYNCCESNI, the negative logarithm of the IC50 (pIC50) in assay [1] (setting [7]) is 6.54; in assay [2] (setting [7]), 5.42; in assay [3] (setting [7]), 6.85; in assay [4] (setting [7]) it was 7.17; in assay [5] (setting [7]), 6.48.
Turning to GLIAIVMVTI, the pIC50 in assay [1] (source organism: SARS-CoV1) is 6.86; in assay [2] (source organism: SARS-CoV1), 5.78; in assay [3] (source organism: SARS-CoV1), 7.72; in assay [4] (source organism: SARS-CoV1), 8.12; in assay [5] (source organism: SARS-CoV1), 7.21.
For GLMWLSYFV, the negative logarithm of the IC50 (pIC50) in assay [1] (source organism: SARS-CoV1) is 9.01; in assay [2] (source organism: SARS-CoV1) it was 7.36; in assay [3] (source organism: SARS-CoV1) it was 9.09; in assay [4] (source organism: SARS-CoV1) it was 9.70; in assay [5] (source organism: SARS-CoV1) it was 9.15.
For GLSDRVVFV, the pIC50 was 7.16 in assay [1] (source organism: SARS-CoV1); 5.93 in assay [2] (source organism: SARS-CoV1); 8.96 in assay [3] (source organism: SARS-CoV1); 9.00 in assay [4] (source organism: SARS-CoV1); 8.51 in assay [5] (source organism: SARS-CoV1).
As for GLSSGFYFEI, the pIC50 in assay [1] (setting [7]) is 5.76; in assay [2] (setting [7]) it was 5.77; in assay [3] (setting [7]) it was 6.11; in assay [4] (setting [7]) it was 7.32; in assay [5] (setting [7]), 6.75.
With GLYIPGTSV, the negative logarithm of the IC50 (pIC50) was 5.76 in assay [1] (setting [7]); 6.04 in assay [2] (setting [7]); 7.77 in assay [3] (setting [7]); 6.95 in assay [4] (setting [7]); 7.12 in assay [5] (setting [7]).
Turning to GMSIVCIVAA, the pIC50 is 5.91 in assay [1] (setting [7]); 5.73 in assay [2] (setting [7]); 6.64 in assay [3] (setting [7]); 6.79 in assay [4] (setting [7]); 6.75 in assay [5] (setting [7]).
As for GTIILNKIV, the negative logarithm of the IC50 (pIC50) was 5.85 in assay [1] (setting [7]); 6.03 in assay [2] (setting [7]); 5.47 in assay [3] (setting [7]); 5.92 in assay [4] (setting [7]); 5.41 in assay [5] (setting [7]).
For the sequence GTSAAAYFV, the pIC50 in assay [1] (source organism: SARS-CoV1) was 7.04; in assay [2] (source organism: SARS-CoV1), 7.85; in assay [3] (source organism: SARS-CoV1), 6.69; in assay [4] (source organism: SARS-CoV1), 7.46; in assay [5] (source organism: SARS-CoV1), 6.75.
On to GTSVIRSNI, for which the negative-log IC50 (pIC50) in assay [1] (setting [7]) is 5.79; in assay [2] (setting [7]), 7.02; in assay [3] (setting [7]) it was 7.35; in assay [4] (setting [7]) it was 6.41; in assay [5] (setting [7]), 6.18.
The corresponding values for GVCYYLLMHL are 6.89, 7.10, 7.19, 7.02 and 6.91.
In the case of GVMYAFTTPL, the pIC50 in assay [1] (setting [7]) was 7.35; in assay [2] (setting [7]) it was 5.59; in assay [3] (setting [7]), 7.36; in assay [4] (setting [7]), 7.47; in assay [5] (setting [7]), 7.08.
